From patent US20170283457A1 (YEDA RESEARCH AND DEVELOPMENT, published 2017) come the findings set out here.

To fix the notation:
B1: GST-p38β (enzyme, UniProt Q15759 1-364, looked up)
chain: MSGPRAGFYRQELNKTVWEVPQRLQGLRPVGSGAYGSVCSAYDARLRQKVAVKKLSRPFQSLIHARRTYRELRLLKHLKHENVIGLLDVFTPATSIEDFSEVYLVTTLMGADLNNIVKCQALSDEHVQFLVYQLLRGLKYIHSAGIIHRDLKPSNVAVNEDCELRILDFGLARQADEEMTGYVATRWYRAPEIMLNWMHYNQTVDIWSVGCIMAELLQGKALFPGSDYIDQLKRIMEVVGTPSPEVLAKISSEHARTYIQSLPPMPQKDLSSIFRGANPLAIDLLGRMLVLDSDQRVSAAEALAHAYFSQYHDPEDEPEAEPYDESVEAKERTLEEWKELTYQEVLSFKPPEPPKPPGSLEIEQ
notes: Made in bacteria; also called GST-p38α/β; GST-MAPK; not shown: glutathione S-transferase tag of the pGEX-2T vector (GE healthcare)
B2: p38β-GFP (enzyme, UniProt Q15759 1-364, looked up)
chain: B1 chain
notes: Overexpressed in HeLa cells; also called wt-p38β; GFP-p38β; not shown: GFP of the pEGFP-C1 vector (Clontech)
B3: Importin7 (receptor, UniProt O95373 1-1038, looked up)
chain: MDPNTIIEALRGTMDPALREAAERQLNEAHKSLNFVSTLLQITMSEQLDLPVRQAGVIYLKNMITQYWPDRETAPGDISPYTIPEEDRHCIRENIVEAIIHSPELIRVQLTTCIHHIIKHDYPSRWTAIVDKIGFYLQSDNSACWLGILLCLYQLVKNYEYKKPEERSPLVAAMQHFLPVLKDRFIQLLSDQSDQSVLIQKQIFKIFYALVQYTLPLELINQQNLTEWIEILKTVVNRDVPNETLQVEEDDRPELPWWKCKKWALHILARLFERYGSPGNVSKEYNEFAEVFLKAFAVGVQQVLLKVLYQYKEKQYMAPRVLQQTLNYINQGVSHALTWKNLKPHIQGIIQDVIFPLMCYTDADEELWQEDPYEYIRMKFDVFEDFISPTTAAQTLLFTACSKRKEVLQKTMGFCYQILTEPNADPRKKDGALHMIGSLAEILLKKKIYKDQMEYMLQNHVFPLFSSELGYMRARACWVLHYFCEVKFKSDQNLQTALELTRRCLIDDREMPVKVEAAIALQVLISNQEKAKEYITPFIRPVMQALLHIIRETENDDLTNVIQKMICEYSEEVTPIAVEMTQHLAMTFNQVIQTGPDEEGSDDKAVTAMGILNTIDTLLSVVEDHKEITQQLEGICLQVIGTVLQQHVLEFYEEIFSLAHSLTCQQVSPQMWQLLPLVFEVFQQDGFDYFTDMMPLLHNYVTVDTDTLLSDTKYLEMIYSMCKKVLTGVAGEDAECHAAKLLEVIILQCKGRGIDQCIPLFVEAALERLTREVKTSELRTMCLQVAIAALYYNPHLLLNTLENLRFPNNVEPVTNHFITQWLNDVDCFLGLHDRKMCVLGLCALIDMEQIPQVLNQVSGQILPAFILLFNGLKRAYACHAEHENDSDDDDEAEDDDETEELGSDEDDIDEDGQEYLEILAKQAGEDGDDEDWEEDDAEETALEGYSTIIDDEDNPVDEYQIFKAIFQTIQNRNPVWYQALTHGLNEEQRKQLQDIATLADQRRAAHESKMIEKHGGYKFSAPVVPSSFNFGGPAPGMN
notes: Endogenous protein; also called Imp7; RANBP7

The target of assay [1] is B3. Briefly: in vitro interaction: GST-MAPK with Imp IPed from stimulated HeLa cells, Western blot. As for the experimental part:
(§1) FIGS. 3A-3B illustrate that JNK1/2 and p38α/β directly interact with either Imp7 or Imp9 but not with Imp3. (A) In vitro interaction of JNK1/2 and p38α/β with Imp3/7/9. Purified Imp3/7/9 were prepared by IP as follows: HeLa cells were grown to 70% confluence, serum starved, and then were either stimulated with Anisomycin (Anis 0.5 μg/ml, 15 min), TPA (250 nM, 15 min) or left untreated (NT). Imp3/7/9 were then IPed from the cell's extracts and extensively washed, twice with RIPA buffer and once with 0.5M LiCl. The indicated GST-MAPKs were prepared from bacteria as described under Materials and methods. To examine association, 500 ng of each GST-MAPK were incubated with 20 μl of the indicated IPed Imps in PBS (2 hrs, 4° C., with rotation). The beads were then washed with washing buffer containing 150 mM NaCl, and interacting MAPKs were detected using Western blot analysis with the indicated Abs. (B) Imp3 is not required for Imp7/9 interactions with JNK1/2 and p38α/β. HeLa cells were treated with Si RNAs of Imp3 according to the manufacturer instructions. […] Cell extracts were then subjected to Co-IP with anti Imp7 or Imp9, the interacting MAPKs were detected by Western blot with the indicated Abs. Amount of IPed Imps was detected by the indicated Abs.
In general terms: Immunoblotting shows a protein as a band on a membrane.

Assay [2] concerns the target T1, Importin9 (UniProt Q96P70 2-1041).
T1 construct: Endogenous protein; also called Imp9; IMB5
The description is as above. As for the experimental part: as §1

For assay [3], the target named is B3. Kind of assay: Co-IP with anti GFP Abs, transfected HeLa cells. As for the experimental part: (§2) FIGS. 10A-10B illustrate that endogenous and overexpressed JNK1/2 and p38α/β CoIP with Imp3, 7 and 9. (A) A Co-IP screen to detect the importins interacting with JNK1/2 and p38α/β in MCF7 cells. MCF7 cells were grown on slides to 70% confluence, serums starved and then were either stimulated with Anisomycin (Anis 0.5 μg/ml, 15 min), TPA (250 nM, 15 min) or left untreated (NT). Cells extracts were then subjected to Co-IP with anti JNK1, JNK2, p38α, or p38β, and rabbit IgG as a negative control (Control). The interacting Imps or the IPed MAPKs were detected by Western blot with the indicated Imps or MAPK Abs. (B) Interaction of overexpressed MAPKs in HeLa cells. HeLa cells were transfected with either JNK2-GFP (wt-JNK2), p38ββ-GFP (wt-p38β) or GFP alone. Cells were serum starved, and then treated with Anisomycin (Anis 0.5 μg/ml, 15 min), TPA (250 nM, 15 min). Cells extracts were then subjected to a CoIP with anti GFP Abs. The interacting Imps and the loading extracts were detected using Western blot analysis with the indicated (left) Abs. The blots were developed with either NBT/BCIP or ECL. Arrows indicate interacting Imps.

Assay [4] addresses T1, Importin9. Briefly: Co-IP with anti GFP Abs, transfected HeLa cells. As for the experimental part:
as §2

In assay [5] the target is T1, Importin9. Kind of assay: PLA, resting HeLa cells. As for the experimental part:
FIGS. 5A-5D illustrate that Imp3 interacts with Imp7/9-MAPK dimer in a phospho-dependent manner (A) Detecting heterodimerization of Imp3/7/9 using PLA. HeLa cells were grown on slides to 70% confluence, serum starved, and stimulated with Anisomycin (Anis, 0.5 μg/ml 15 min). Thereafter, the cells were fixed and subjected to a PLA, using the Abs indicated on top. The nuclei were detected using DAPI, and slides were visualized using a fluorescent microscope. (B) Quantification of the intensity of the signal was performed using ImageJ analysis tool. Data shown represents mean±S.E. The significance of stimulated vs NT was p<0.0005. (C) Detecting Imp3/7/9 interaction by CoIP. Serum-starved HeLa cells (0.1% FBS, 16 hrs) were treated with Anisomycin (Anis 0.5 μg/ml) or TPA (250 nM) for 15 min. Cell extracts were then subjected to a Co-IP with the Abs indicated on right. […] The beads were then washed with a washing buffer containing 150 mM NaCl, and interacting Imps were detected using Western blot analysis with the indicated Abs.
In order to examine this hypothesis, and establish a complex formation between endogenous Imp3/7/9, the present inventors monitored these possible interactions by PLA. No interaction between any of the examined Importins was detected in resting HeLa cells (FIGS. 5A, 5B). […]

T1 sequence (Q96P70 2-1041 limits assumed): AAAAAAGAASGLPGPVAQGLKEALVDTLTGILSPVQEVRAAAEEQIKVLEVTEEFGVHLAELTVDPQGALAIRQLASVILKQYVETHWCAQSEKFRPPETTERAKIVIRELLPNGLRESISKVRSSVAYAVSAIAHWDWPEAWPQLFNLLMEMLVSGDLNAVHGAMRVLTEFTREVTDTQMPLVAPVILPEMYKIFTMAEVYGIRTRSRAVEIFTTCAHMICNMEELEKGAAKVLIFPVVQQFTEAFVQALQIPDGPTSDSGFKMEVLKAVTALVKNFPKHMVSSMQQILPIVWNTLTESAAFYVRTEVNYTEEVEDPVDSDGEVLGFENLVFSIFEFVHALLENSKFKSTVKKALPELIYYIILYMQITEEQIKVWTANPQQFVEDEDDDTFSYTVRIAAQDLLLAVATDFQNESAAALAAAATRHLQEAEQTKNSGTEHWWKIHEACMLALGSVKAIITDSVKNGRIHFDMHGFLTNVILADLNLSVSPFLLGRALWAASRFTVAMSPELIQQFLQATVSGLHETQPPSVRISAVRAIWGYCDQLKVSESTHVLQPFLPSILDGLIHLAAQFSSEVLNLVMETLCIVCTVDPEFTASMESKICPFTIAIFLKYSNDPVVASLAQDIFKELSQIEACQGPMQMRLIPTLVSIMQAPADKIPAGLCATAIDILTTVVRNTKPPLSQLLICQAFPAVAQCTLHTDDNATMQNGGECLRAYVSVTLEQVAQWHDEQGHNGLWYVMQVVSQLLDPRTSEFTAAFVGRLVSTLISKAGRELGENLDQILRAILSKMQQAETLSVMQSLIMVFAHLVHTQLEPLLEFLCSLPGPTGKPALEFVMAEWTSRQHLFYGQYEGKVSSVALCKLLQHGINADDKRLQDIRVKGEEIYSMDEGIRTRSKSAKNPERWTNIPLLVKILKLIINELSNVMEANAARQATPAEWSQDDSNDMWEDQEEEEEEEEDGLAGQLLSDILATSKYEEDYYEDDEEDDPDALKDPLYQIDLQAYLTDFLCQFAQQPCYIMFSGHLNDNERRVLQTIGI

As to B1, the binding result with Importin7 [1] and with Importin9 [2] was “binds” throughout.

Take B2: the binding result with Importin7 [3] and with Importin9 [4] was “binds” throughout.

Turning to B3, the binding result with Importin9 [5] is on record as “no binding”.
